One assay concerns the target T1, SK-OV-3细胞上的CD73 (human, UniProt P21589 27-549).
T1 construct: whole, on cells; Endogenous CD73 of the human CD73-positive cell line SK-OV-3; also called 人CD73阳性细胞; SK-OV-3细胞表面的CD73
T1 sequence (looked up): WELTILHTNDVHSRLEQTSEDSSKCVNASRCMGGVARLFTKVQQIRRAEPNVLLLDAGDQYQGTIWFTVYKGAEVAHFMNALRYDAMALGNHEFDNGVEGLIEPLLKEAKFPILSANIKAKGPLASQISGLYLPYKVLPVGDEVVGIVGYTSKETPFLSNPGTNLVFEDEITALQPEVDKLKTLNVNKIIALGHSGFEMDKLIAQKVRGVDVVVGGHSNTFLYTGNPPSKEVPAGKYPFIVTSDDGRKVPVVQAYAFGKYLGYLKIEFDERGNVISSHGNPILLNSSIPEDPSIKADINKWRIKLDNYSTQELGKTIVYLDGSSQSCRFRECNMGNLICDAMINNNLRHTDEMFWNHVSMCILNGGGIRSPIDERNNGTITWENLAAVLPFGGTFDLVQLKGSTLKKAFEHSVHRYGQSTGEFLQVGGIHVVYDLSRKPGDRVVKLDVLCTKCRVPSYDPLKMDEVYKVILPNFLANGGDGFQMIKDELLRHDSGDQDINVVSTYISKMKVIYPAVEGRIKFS
The experiment in a line: flow cytometry on SK-OV-3 cells, Anti-hFC-APC. (In general: A flow cytometer gives signals particle by particle.)

The next assay deals with T2, 重组人CD73蛋白 (human, UniProt P21589 27-547, limits assumed).
T2 construct: Coated at 3 ug/ml in the ELISA and used at 5 ug/ml in the enzyme assay; also called rhCD73
T2 sequence (looked up): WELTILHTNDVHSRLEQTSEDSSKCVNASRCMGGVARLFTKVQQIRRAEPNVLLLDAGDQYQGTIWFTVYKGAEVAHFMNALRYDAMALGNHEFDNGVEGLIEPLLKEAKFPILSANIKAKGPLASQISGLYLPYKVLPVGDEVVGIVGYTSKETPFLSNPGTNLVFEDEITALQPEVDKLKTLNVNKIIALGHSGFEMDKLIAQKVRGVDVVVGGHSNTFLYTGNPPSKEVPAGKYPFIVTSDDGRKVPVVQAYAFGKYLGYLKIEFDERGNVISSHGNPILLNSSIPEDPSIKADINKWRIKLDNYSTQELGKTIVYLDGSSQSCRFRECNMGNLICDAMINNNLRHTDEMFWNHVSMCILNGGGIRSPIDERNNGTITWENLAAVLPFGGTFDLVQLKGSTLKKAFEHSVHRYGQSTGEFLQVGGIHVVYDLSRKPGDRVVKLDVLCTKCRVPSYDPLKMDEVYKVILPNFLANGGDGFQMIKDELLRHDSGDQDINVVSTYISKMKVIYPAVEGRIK
Description: ELISA, recombinant human CD73 coated at 3 ug/ml. On the technique in general: An ELISA detects its analyte on a solid surface through an enzyme-linked reagent.

The text below walks through data of patent CN113045659A (NOVOPROTEIN SCIENT INC, dated 2021).

B1: 137-4 (antibody, IgG1, V domains shown)
VH: QVQLVQSGAEVKKPGSSVKVSCKASGYSFTGYYIHWVRQAPGQGLEWMGRINPYNGATTYNQNFKDRVTITVDKSTSTAYMELSSLRSEDTAVYYCARFHYGAVDYWGQGTLVTVSS
VL: DIQMTQSPSSLSASVGDRVTITCKASQDINTYLTWYQQKPGKAPKTLIYRANILVDGVPSRFSGSGSGTDFTLTISSLQPEDFATYYCLQYEEFPLTFGGGTKVEIKR
notes: also called 人源化CD73抗体; CQ137人源化抗体; not shown: kappa constant region
On to B1, for which the binding result in the assay with SK-OV-3细胞上的CD73 and with 重组人CD73蛋白 was “binds” each time.

B2: 137-5 (antibody, IgG1, V domains shown)
VH: QVQLVQSGAEVKKPGSSVKVSCKASGYSFTGYYIHWVRQAPGQGLEWMGRINPYNGATTYNQNFKDRVTITVDKSTSTAYMELSSLRSEDTAVYYCARFHYGAADYWGQGTLVTVSS
VL: DIQMTQSPSSLSASVGDRVTITCKASQDINTYLTWYQQKPGKAPKTLIYRANILVDGVPSRFSGSGSGTDFTLTISSLQPEDFATYYCLQYNEFPLTFGGGTKVEIKR
notes: as for B1
Take B2: the binding result with SK-OV-3细胞上的CD73 and with 重组人CD73蛋白 was “binds” in each case.

B3: 137-7 (antibody, IgG1, V domains shown)
VH: QVQLVQSGAEVKKPGSSVKVSCKASGYSFTGYYIHWVRQAPGQGLEWMGRINPYNGATTYNQNFKDRVTITVDKSTSTAYMELSSLRSEDTAVYYCARFHYGAPNYWGQGTLVTVSS
VL: DIQMTQSPSSLSASVGDRVTITCKASQDINTYLTWYQQKPGKAPKTLIYRANILVDGVPSRFSGSGSGTDFTLTISSLQPEDFATYYCLQYDDFPLTFGGGTKVEIKR
notes: as for B1
In the case of B3, the binding result with SK-OV-3细胞上的CD73 and with 重组人CD73蛋白 was “binds” each time.

B4: 137-9 (antibody, IgG1, V domains shown)
VH: QVQLVQSGAEVKKPGSSVKVSCKASGYSFTGYYIHWVRQAPGQGLEWMGRINPYNGATTYNQNFKDRVTITVDKSTSTAYMELSSLRSEDTAVYYCARFHYGAPDLWGQGTLVTVSS
VL: DIQMTQSPSSLSASVGDRVTITCKASQDINTYLTWYQQKPGKAPKTLIYRANILVDGVPSRFSGSGSGTDFTLTISSLQPEDFATYYCLQYDAFPLTFGGGTKVEIKR
notes: as for B1
As for B4, the binding result with SK-OV-3细胞上的CD73 and with 重组人CD73蛋白 was “binds” throughout.

B5: 137-8 (antibody, IgG1, V domains shown)
VH: QVQLVQSGAEVKKPGSSVKVSCKASGYSFTGYYIHWVRQAPGQGLEWMGRINPYNGATTYNQNFKDRVTITVDKSTSTAYMELSSLRSEDTAVYYCARFHYGAPDFWGQGTLVTVSS
VL: DIQMTQSPSSLSASVGDRVTITCKASQDINTYLTWYQQKPGKAPKTLIYRANILVDGVPSRFSGSGSGTDFTLTISSLQPEDFATYYCLQYDQFPLTFGGGTKVEIKR
notes: as for B1
In the case of B5, the binding result with SK-OV-3细胞上的CD73 and with 重组人CD73蛋白 was “binds” in each case.

B6: 137-6 (antibody, IgG1, V domains shown)
VH: QVQLVQSGAEVKKPGSSVKVSCKASGYSFTGYYIHWVRQAPGQGLEWMGRINPYNGATTYNQNFKDRVTITVDKSTSTAYMELSSLRSEDTAVYYCARFHYGAPEYWGQGTLVTVSS
VL: DIQMTQSPSSLSASVGDRVTITCKASQDINTYLTWYQQKPGKAPKTLIYRANILVDGVPSRFSGSGSGTDFTLTISSLQPEDFATYYCLQYAEFPLTFGGGTKVEIKR
notes: as for B1
Regarding B6, the binding result in the assay with SK-OV-3细胞上的CD73 and with 重组人CD73蛋白 was “binds” each time.
